Where two headings read alike, the source gives them in different places. Square brackets hold non-standard residues; d marks the D form. Ends that are not written are not given here.
Assays:
Assay in all cases: cell-based or functional assay
human CCK-B receptor [1] = molecular target: T1, human CCK-B receptor (human, UniProt P32239 1-447)
T1 sequence (looked up): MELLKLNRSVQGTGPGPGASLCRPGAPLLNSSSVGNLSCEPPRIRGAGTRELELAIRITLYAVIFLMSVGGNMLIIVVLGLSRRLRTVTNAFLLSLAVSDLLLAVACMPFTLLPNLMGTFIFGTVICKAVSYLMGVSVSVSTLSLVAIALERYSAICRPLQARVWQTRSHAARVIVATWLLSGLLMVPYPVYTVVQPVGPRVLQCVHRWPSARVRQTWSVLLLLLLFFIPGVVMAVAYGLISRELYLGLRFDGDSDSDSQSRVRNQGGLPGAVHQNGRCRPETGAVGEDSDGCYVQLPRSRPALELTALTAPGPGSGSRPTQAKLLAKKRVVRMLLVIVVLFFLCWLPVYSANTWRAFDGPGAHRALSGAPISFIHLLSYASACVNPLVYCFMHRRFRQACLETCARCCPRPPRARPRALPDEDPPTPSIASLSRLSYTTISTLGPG

human GLP-1 receptor [2] = molecular target: T2, human GLP-1 receptor (human, UniProt P43220 24-463)
Target sequence in this assay (P43220 24-463): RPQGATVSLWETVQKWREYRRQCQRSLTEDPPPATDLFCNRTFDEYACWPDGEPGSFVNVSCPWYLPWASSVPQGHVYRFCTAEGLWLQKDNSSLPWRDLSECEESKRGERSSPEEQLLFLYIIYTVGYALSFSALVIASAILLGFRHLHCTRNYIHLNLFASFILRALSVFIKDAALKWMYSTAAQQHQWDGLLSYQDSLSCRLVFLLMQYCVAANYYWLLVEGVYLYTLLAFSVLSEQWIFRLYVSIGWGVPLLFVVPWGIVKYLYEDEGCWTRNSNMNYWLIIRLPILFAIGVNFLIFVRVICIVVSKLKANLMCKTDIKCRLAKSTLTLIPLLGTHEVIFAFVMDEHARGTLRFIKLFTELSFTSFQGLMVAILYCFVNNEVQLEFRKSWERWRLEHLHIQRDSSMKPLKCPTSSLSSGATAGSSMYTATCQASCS

mouse CCK-B receptor [3] = molecular target: T3, mouse CCK-B receptor (mouse, UniProt P56481 1-453)
T3 sequence (looked up): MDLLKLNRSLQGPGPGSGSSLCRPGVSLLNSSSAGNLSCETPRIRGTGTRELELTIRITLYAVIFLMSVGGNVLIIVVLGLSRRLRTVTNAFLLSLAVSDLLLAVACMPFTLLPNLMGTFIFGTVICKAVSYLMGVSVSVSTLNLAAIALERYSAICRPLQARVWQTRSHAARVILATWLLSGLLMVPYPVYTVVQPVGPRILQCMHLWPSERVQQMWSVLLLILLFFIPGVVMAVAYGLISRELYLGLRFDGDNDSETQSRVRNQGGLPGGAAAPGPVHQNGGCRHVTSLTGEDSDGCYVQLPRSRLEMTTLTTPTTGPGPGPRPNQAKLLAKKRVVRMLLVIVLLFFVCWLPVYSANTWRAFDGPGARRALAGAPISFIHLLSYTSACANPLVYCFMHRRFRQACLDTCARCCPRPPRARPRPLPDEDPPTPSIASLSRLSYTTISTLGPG

mouse CCK-B receptor [4] = molecular target: T3, mouse CCK-B receptor; remark: listed apart in the source
human CCK-B receptor [5] = molecular target: T1, human CCK-B receptor; remark: listed apart in the source
human GLP-1 receptor [6] = molecular target: T2, human GLP-1 receptor; remark: listed apart in the source
Target sequence in this assay (P43220 24-463): as the sequence (P43220 24-463) above

human CCK-B receptor [7] = molecular target: T1, human CCK-B receptor; remark: listed apart in the source
human GLP-1 receptor [8] = molecular target: T2, human GLP-1 receptor; remark: listed apart in the source

[Arg34]GLP-1(7-37)-Peg3-Peg3-[Leu4]Gastrin6 (peptide)
hCCK-B R EC50 (p-ERK) (human CCK-B receptor [1]): 24 nM

[Arg34,Lys(Hexadecanoyl-isoGlu)26]GLP-1(7-37)-Peg3-Peg3-[Leu4]Gastrin6 (peptide)
hCCK-B R EC50 (p-ERK) (human CCK-B receptor [1]): 29 nM

[Aib8,Arg34]GLP-1(7-37)-Peg3-Peg3-[Leu4]Gastrin6 (peptide)
hCCK-B R EC50 (p-ERK) (human CCK-B receptor [1]): 42 nM
hGLP-1 R EC50 (cAMP) (human GLP-1 receptor [2]): 0.043 nM

GLP-1(7-36)-Peg3-Peg3-[Gln1,Leu15]Gastrin17 (peptide)
hCCK-B R EC50 (p-ERK) (human CCK-B receptor [1]): 8.2 nM
mCCK-B R EC50 (p-ERK) (mouse CCK-B receptor [3]): 58 nM
mCCK-B R EC50 (p-ERK) (mouse CCK-B receptor [4]): 58.3 nM

GLP-1(7-36)-Peg3-SKK-[Gln1,Leu15]Gastrin17 (peptide)
hCCK-B R EC50 (p-ERK) (human CCK-B receptor [1]): 8.8 nM
mCCK-B R EC50 (p-ERK) (mouse CCK-B receptor [3]): 51 nM
hCCK-B R EC50 (p-ERK) (human CCK-B receptor [5]): 8.76 nM
mCCK-B R EC50 (p-ERK) (mouse CCK-B receptor [4]): 51.1 nM

GLP-1(7-36)-8Aoc-SKK-[Gln1,Leu15]Gastrin17 (peptide)
hCCK-B R EC50 (p-ERK) (human CCK-B receptor [1]): 52 nM
mCCK-B R EC50 (p-ERK) (mouse CCK-B receptor [3]): 83 nM
hCCK-B R EC50 (p-ERK) (human CCK-B receptor [5]): 51.9 nM
mCCK-B R EC50 (p-ERK) (mouse CCK-B receptor [4]): 82.5 nM

h[Leu15]Gastrin17 (from UniProt P01350 76-92) (peptide)
hCCK-B R EC50 (p-ERK) (human CCK-B receptor [1]): 2.4 nM

[Arg26,34,Lys(Hexadecanoyl-isoGlu)36]GLP-1(7-37)-Peg3-Peg3-[Leu4]Gastrin6 (peptide)
hCCK-B R EC50 (p-ERK) (human CCK-B receptor [1]): 78 nM
hGLP-1 R EC50 (cAMP) (human GLP-1 receptor [2]): 0.11 nM

GLP-1(7-36)-8Aoc-8Aoc-[Gln1,Leu15]Gastrin17 (peptide)
hCCK-B R EC50 (p-ERK) (human CCK-B receptor [1]): 13 nM
mCCK-B R EC50 (p-ERK) (mouse CCK-B receptor [3]): 71 nM
hCCK-B R EC50 (p-ERK) (human CCK-B receptor [5]): 12.8 nM
mCCK-B R EC50 (p-ERK) (mouse CCK-B receptor [4]): 71.4 nM

GLP-1(7-36)-K-[Gln1,Leu15]Gastrin17 (peptide)
hCCK-B R EC50 (p-ERK) (human CCK-B receptor [1]): 77 nM
hGLP-1 R EC50 (cAMP) (human GLP-1 receptor [2]): 0.03 nM
mCCK-B R EC50 (p-ERK) (mouse CCK-B receptor [3]): 110 nM
hCCK-B R EC50 (p-ERK) (human CCK-B receptor [5]): 77.3 nM
hGLP-1 R EC50 (cAMP) (human GLP-1 receptor [6]): 0.0842 nM
mCCK-B R EC50 (p-ERK) (mouse CCK-B receptor [4]): 114 nM

GLP-1(7-36)-DBF-SKK-[Gln1,Leu15]Gastrin17 (peptide)
hCCK-B R EC50 (p-ERK) (human CCK-B receptor [1]): 26 nM
mCCK-B R EC50 (p-ERK) (mouse CCK-B receptor [3]): 87 nM
hCCK-B R EC50 (p-ERK) (human CCK-B receptor [5]): 25.7 nM
mCCK-B R EC50 (p-ERK) (mouse CCK-B receptor [4]): 86.9 nM

GLP-1(7-36)-AAA-[Gln1,Leu15]Gastrin17 (peptide)
hCCK-B R EC50 (p-ERK) (human CCK-B receptor [1]): 19 nM
hGLP-1 R EC50 (cAMP) (human GLP-1 receptor [2]): 0.034 nM
mCCK-B R EC50 (p-ERK) (mouse CCK-B receptor [3]): 54 nM
hCCK-B R EC50 (p-ERK) (human CCK-B receptor [5]): 18.8 nM
hGLP-1 R EC50 (cAMP) (human GLP-1 receptor [6]): 0.114 nM
mCCK-B R EC50 (p-ERK) (mouse CCK-B receptor [4]): 54.1 nM

GLP-1(7-36)-[Gln1,Leu15]Gastrin17 (peptide)
hCCK-B R EC50 (p-ERK) (human CCK-B receptor [1]): 26 nM
hGLP-1 R EC50 (cAMP) (human GLP-1 receptor [2]): 0.03 nM
mCCK-B R EC50 (p-ERK) (mouse CCK-B receptor [3]): 73 nM
hCCK-B R EC50 (p-ERK) (human CCK-B receptor [5]): 25.9 nM
hGLP-1 R EC50 (cAMP) (human GLP-1 receptor [6]): 0.145 nM
mCCK-B R EC50 (p-ERK) (mouse CCK-B receptor [4]): 73.1 nM

CCK-8 (from UniProt P06307 96-103) (peptide)
mCCK-B R EC50 (p-ERK) (mouse CCK-B receptor [3]): 160 nM
mCCK-B R EC50 (p-ERK) (mouse CCK-B receptor [4]): 163 nM

[Aib8,Arg34,Lys(Hexadecanoyl-isoGlu)26]GLP-1(7-37)-Peg3-Peg3-[Leu4]Gastrin6 (peptide)
hCCK-B R EC50 (p-ERK) (human CCK-B receptor [1]): 59 nM
hGLP-1 R EC50 (cAMP) (human GLP-1 receptor [2]): 0.088 nM

[Lys(Hexadecanoyl-isoGlu)26]GLP-1(7-37)-Peg3-Peg3-[Leu4]Gastrin6 (peptide)
hCCK-B R EC50 (p-ERK) (human CCK-B receptor [1]): 26 nM

[Arg26,34,Gly8,Lys(Hexadecanoyl-isoGlu)36]GLP-1(7-37)-Peg3-Peg3-[Leu4]Gastrin6 (peptide)
hCCK-B R EC50 (p-ERK) (human CCK-B receptor [1]): 29 nM
hGLP-1 R EC50 (cAMP) (human GLP-1 receptor [2]): 0.12 nM

GLP-1(7-36)-SKK-[Gln1,Leu15]Gastrin17 (peptide)
hCCK-B R EC50 (p-ERK) (human CCK-B receptor [1]): 16 nM
hGLP-1 R EC50 (cAMP) (human GLP-1 receptor [2]): 0.031 nM
mCCK-B R EC50 (p-ERK) (mouse CCK-B receptor [3]): 59 nM
hCCK-B R EC50 (p-ERK) (human CCK-B receptor [5]): 15.6 nM
hGLP-1 R EC50 (cAMP) (human GLP-1 receptor [6]): 0.116 nM
mCCK-B R EC50 (p-ERK) (mouse CCK-B receptor [4]): 58.6 nM

[Lys(Hexadecanoyl-isoGlu)34]GLP-1(7-37)-Peg3-Peg3-[Leu4]Gastrin6 (peptide)
hCCK-B R EC50 (p-ERK) (human CCK-B receptor [1]): 18 nM

h[Gln1,Leu15]Gastrin17 (peptide)
mCCK-B R EC50 (p-ERK) (mouse CCK-B receptor [3]): 18 nM
mCCK-B R EC50 (p-ERK) (mouse CCK-B receptor [4]): 18.2 nM

HGEGTFTSDLSKQMEKEAVRLFIEWLKN[Peg3][Peg3]YGWLDF-NH2 [[Lys16]Exendin-4(1-28)-Peg3-Peg3-[Leu4]Gastrin6]
hCCK-B R EC50 (p-ERK) (human CCK-B receptor [7]): 15 nM
hGLP-1 R EC50 (cAMP) (human GLP-1 receptor [8]): 0.032 nM
